Reference: the Human Domainome abundance scans (Beltran et al. 2025)
± gives the uncertainty stated by the source.

B1: Tripartite motif-containing protein 6, residues 93 to 134; numbered along this chain, Q9C030 (parent)
chain: KAVLCADHGEKLQLFCQEDGKVICWLCERSQEHRGHHTFLVE

Variants of: B1
Experiment: abundance fitness (aPCA) (normalised: wild type 0, dead -1); higher = more abundant; growth selection in yeast, the domain comes from the species named
Conditions: Homo sapiens

| Variant | abundance fitness |
| --- | --- |
| KAVLCADHGEKLQLFCQEDGKVICWMCERSQEHRGHHTFLVE [L26M] | 0.474 ± 0.15 |
| KAVLCADHGEKLQLFCQEDGKVICWFCERSQEHRGHHTFLVE [L26F] | -0.517 ± 0.19 |
| KAVLCADHGEKLQLFCQEDGKVICWKCERSQEHRGHHTFLVE [L26K] | 0.104 ± 0.072 |
| KAVLCADHGEKLQLFCQEDGKVICWDCERSQEHRGHHTFLVE [L26D] | -0.05 ± 0.067 |
| KAVLCADHGEKLQLFCQEDGKVICWQCERSQEHRGHHTFLVE [L26Q] | 0.259 ± 0.11 |
| KAVLCADHGEKLQLFCQEDGKVICWACERSQEHRGHHTFLVE [L26A] | -0.029 ± 0.066 |
| KAVLCADHGEKLQLFCQEDGKVICWTCERSQEHRGHHTFLVE [L26T] | -0.011 ± 0.094 |
| KAVLCADHGEKLQLFCQEDGKVICWVCERSQEHRGHHTFLVE [L26V] | -0.05 ± 0.056 |
| KAVLCADHGEKLQLFCQEDGKVICWICERSQEHRGHHTFLVE [L26I] | -0.172 ± 0.13 |
| KAVLCADHGEKLQLFCQEDGKVICWSCERSQEHRGHHTFLVE [L26S] | -0.059 ± 0.091 |
| KAVLCADHGEKLQLFCQEDGKVICWRCERSQEHRGHHTFLVE [L26R] | 0.084 ± 0.067 |
| KAVLCADHGEKLQLFCQEDGKVICWGCERSQEHRGHHTFLVE [L26G] | -0.042 ± 0.058 |
| KAVLCADHGEKLQLFCQEDGKVICWYCERSQEHRGHHTFLVE [L26Y] | -0.015 ± 0.078 |
| KAVLCADHGEKLQLFCQEDGKVICWNCERSQEHRGHHTFLVE [L26N] | -0.057 ± 0.14 |
| KAVLCADHGEKLQLFCQEDGKVICWWCERSQEHRGHHTFLVE [L26W] | -0.169 ± 0.08 |
| KAVLCADHGEKLQLFCQEDGKVICWCCERSQEHRGHHTFLVE [L26C] | -0.155 ± 0.097 |
| KAVLCADHGEKLQLFCQEDGKVICWECERSQEHRGHHTFLVE [L26E] | 0.082 ± 0.34 |
| KAVLCADHGEKLQLFCQEDGKVICWHCERSQEHRGHHTFLVE [L26H] | -0.079 ± 0.14 |
| KAVLCADHGEKLQLFCQEDGKVICWPCERSQEHRGHHTFLVE [L26P] | -0.186 ± 0.15 |
| KAVLCADHGEKLQLFCQEDGKVICWLLERSQEHRGHHTFLVE [C27L] | -0.8 ± 0.19 |

| Variant | abundance fitness |
| --- | --- |
| KAVLCADHGEKLQLFCQEDGKVICWLGERSQEHRGHHTFLVE [C27G] | -0.66 ± 0.082 |
| KAVLCADHGEKLQLFCQEDGKVICWLRERSQEHRGHHTFLVE [C27R] | -0.603 ± 0.079 |
| KAVLCADHGEKLQLFCQEDGKVICWLTERSQEHRGHHTFLVE [C27T] | -0.882 ± 0.35 |
| KAVLCADHGEKLQLFCQEDGKVICWLEERSQEHRGHHTFLVE [C27E] | -0.863 ± 0.1 |
| KAVLCADHGEKLQLFCQEDGKVICWLSERSQEHRGHHTFLVE [C27S] | -1.1 ± 0.27 |
| KAVLCADHGEKLQLFCQEDGKVICWLKERSQEHRGHHTFLVE [C27K] | -1.14 ± 0.22 |
| KAVLCADHGEKLQLFCQEDGKVICWLQERSQEHRGHHTFLVE [C27Q] | -0.969 ± 0.24 |
| KAVLCADHGEKLQLFCQEDGKVICWLAERSQEHRGHHTFLVE [C27A] | -0.755 ± 0.1 |
| KAVLCADHGEKLQLFCQEDGKVICWLVERSQEHRGHHTFLVE [C27V] | -1.32 ± 0.35 |
| KAVLCADHGEKLQLFCQEDGKVICWLPERSQEHRGHHTFLVE [C27P] | -0.536 ± 0.35 |
| KAVLCADHGEKLQLFCQEDGKVILWLCERSQEHRGHHTFLVE [C24L] | -1.1 ± 0.21 |
| KAVLCADHGEKLQLFCQEDGKVITWLCERSQEHRGHHTFLVE [C24T] | -0.664 ± 0.19 |
| KAVLCADHGEKLQLFCQEDGKVIAWLCERSQEHRGHHTFLVE [C24A] | -0.886 ± 0.16 |
| KAVLCADHGEKLQLFCQEDGKVIPWLCERSQEHRGHHTFLVE [C24P] | -0.517 ± 0.13 |
| KAVLCADHGEKLQLFCQEDGKVIEWLCERSQEHRGHHTFLVE [C24E] | -0.627 ± 0.093 |
| KAVLCADHGEKLQLFCQEDGKVIIWLCERSQEHRGHHTFLVE [C24I] | -0.753 ± 0.46 |
| KAVLCADHGEKLQLFCQEDGKVIYWLCERSQEHRGHHTFLVE [C24Y] | -0.725 ± 0.34 |
| KAVLCADHGEKLQLFCQEDGKVIKWLCERSQEHRGHHTFLVE [C24K] | -0.615 ± 0.31 |
| KAVLCADHGEKLQLFCQEDGKVIRWLCERSQEHRGHHTFLVE [C24R] | -1.02 ± 0.15 |
| KAVLCADHGEKLQLFCQEDGKVIWWLCERSQEHRGHHTFLVE [C24W] | -0.908 ± 0.33 |

| Variant | abundance fitness |
| --- | --- |
| KAVLCADHGEKLQLFCQEDGKVISWLCERSQEHRGHHTFLVE [C24S] | -0.717 ± 0.14 |
| KAVLCADHGEKLQLFCQEDGKVIVWLCERSQEHRGHHTFLVE [C24V] | -1.19 ± 0.18 |
| KAVLCADHGEKLQLFCQEDGKVIDWLCERSQEHRGHHTFLVE [C24D] | -0.822 ± 0.16 |
| KAVLCADHGEKLQLFCQEDGKVIGWLCERSQEHRGHHTFLVE [C24G] | -1.16 ± 0.12 |
| KAVLCADHGEKLQLFCQEDGKVIQWLCERSQEHRGHHTFLVE [C24Q] | -0.748 ± 0.12 |
| KAVLCADHGEKLQLFCQEDGKVICWLCEISQEHRGHHTFLVE [R29I] | -0.207 ± 0.11 |
| KAVLCADHGEKLQLFCQEDGKVICWLCEDSQEHRGHHTFLVE [R29D] | -0.268 ± 0.15 |
| KAVLCADHGEKLQLFCQEDGKVICWLCEVSQEHRGHHTFLVE [R29V] | -0.299 ± 0.074 |
| KAVLCADHGEKLQLFCQEDGKVICWLCELSQEHRGHHTFLVE [R29L] | -0.175 ± 0.082 |
| KAVLCADHGEKLQLFCQEDGKVICWLCEKSQEHRGHHTFLVE [R29K] | -0.05 ± 0.073 |
| KAVLCADHGEKLQLFCQEDGKVICWLCEGSQEHRGHHTFLVE [R29G] | -0.189 ± 0.066 |
| KAVLCADHGEKLQLFCQEDGKVICWLCEQSQEHRGHHTFLVE [R29Q] | -0.164 ± 0.074 |
| KAVLCADHGEKLQLFCQEDGKVICWLCEHSQEHRGHHTFLVE [R29H] | 0.051 ± 0.19 |
| KAVLCADHGEKLQLFCQEDGKVICWLCEMSQEHRGHHTFLVE [R29M] | -0.121 ± 0.098 |
| KAVLCADHGEKLQLFCQEDGKVICWLCEESQEHRGHHTFLVE [R29E] | -0.094 ± 0.074 |
| KAVLCADHGEKLQLFCQEDGKVICWLCEFSQEHRGHHTFLVE [R29F] | -0.458 ± 0.33 |
| KAVLCADHGEKLQLFCQEDGKVICWLCESSQEHRGHHTFLVE [R29S] | -0.289 ± 0.082 |
| KAVLCADHGEKLQLFCQEDGKVICWLCEASQEHRGHHTFLVE [R29A] | -0.331 ± 0.073 |
| KAVLCADHGEKLQLFCQEDGKVICWLCEYSQEHRGHHTFLVE [R29Y] | -0.24 ± 0.16 |
| KAVLCADHGEKLQLFCQEDGKWICWLCERSQEHRGHHTFLVE [V22W] | -0.554 ± 0.2 |
